Data reported in paper PMC4687910, “Thermostabilization of the Human Serotonin Transporter in an Antidepressant-Bound Conformation” (PLoS ONE, 2015).

Test system: T1, NCCc1c[nH]c2ccc(O)cc12
T1 construct: wild-type hSERT expressed in HEK293S cells
Assay: cells, lysate or membranes
Type: cell-based, Homo sapiens
Settings: Na+ and Cl-

human serotonin transporter (hSERT) (Homo sapiens)
Km: 3.4 µM
